Results on four molecules are retold here after US20060035329A1 (CARNEGIE INSTITUTION OF WASHINGTON, published 2006).

Experiment [1] has as its target LexA-hr (hr amino acids 575-1215 fused to the lexA DNA binding domain) (rat). Nature of the experiment: yeast two-hybrid, β-galactosidase activity with TRIAC (10^-6 M) against without hormone.
For experiment [2], the target named is TR (thyroid hormone receptor co-expressed with hr in the reporter assay). Nature of the experiment: cell-based or functional assay.
The target of experiment [3] is T1, hr fusion protein (hr amino acids 575-1215 fused to either GST or TrpE; which one is not said) (rat, UniProt P97609 549-1181).
T1 construct: also called the hr fusion protein; not shown: fusion partner is GST or TrpE
T1 sequence: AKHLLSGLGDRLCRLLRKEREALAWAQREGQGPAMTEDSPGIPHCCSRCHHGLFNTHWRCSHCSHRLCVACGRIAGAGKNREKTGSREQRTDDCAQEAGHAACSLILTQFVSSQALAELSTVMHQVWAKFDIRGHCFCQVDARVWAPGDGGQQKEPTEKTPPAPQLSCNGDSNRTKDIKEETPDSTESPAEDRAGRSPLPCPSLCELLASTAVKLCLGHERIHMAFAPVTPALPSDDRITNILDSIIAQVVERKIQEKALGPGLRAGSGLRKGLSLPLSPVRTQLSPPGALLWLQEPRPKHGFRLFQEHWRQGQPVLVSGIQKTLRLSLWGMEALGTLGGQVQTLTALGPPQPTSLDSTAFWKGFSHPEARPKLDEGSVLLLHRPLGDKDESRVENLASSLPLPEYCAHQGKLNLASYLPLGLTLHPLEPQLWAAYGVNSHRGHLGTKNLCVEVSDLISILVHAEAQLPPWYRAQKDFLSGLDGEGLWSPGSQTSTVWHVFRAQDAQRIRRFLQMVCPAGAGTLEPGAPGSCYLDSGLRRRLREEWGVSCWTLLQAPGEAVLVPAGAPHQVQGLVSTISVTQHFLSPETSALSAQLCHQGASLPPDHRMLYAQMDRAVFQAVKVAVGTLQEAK
Nature of the experiment: far western, 35S-labeled probe on immobilized hr fusion protein.

“TRα1 (as tested in the two-hybrid assay) (receptor)” came in with a fold reduction of interaction by hormone in experiment [1] of 2 fold.

Consider “hr (hairless gene product expressed from an expression construct containing the hr gene) (from UniProt P97609 1-1181)”, for which the thyroid hormone induced transcription (TRE-containing reporter) in experiment [2] came to 2 fold.

B1: 35S-RAR (retinoic acid receptor, from pCMX hRARα) (receptor, human, UniProt P10276 1-462, looked up)
chain: MASNSSSCPTPGGGHLNGYPVPPYAFFFPPMLGGLSPPGALTTLQHQLPVSGYSTPSPATIETQSSSSEEIVPSPPSPPPLPRIYKPCFVCQDKSSGYHYGVSACEGCKGFFRRSIQKNMVYTCHRDKNCIINKVTRNRCQYCRLQKCFEVGMSKESVRNDRNKKKKEVPKPECSESYTLTPEVGELIEKVRKAHQETFPALCQLGKYTTNNSSEQRVSLDIDLWDKFSELSTKCIIKTVEFAKQLPGFTTLTIADQITLLKAACLDILILRICTRYTPEQDTMTFSDGLTLNRTQMHNAGFGPLTDLVFAFANQLLPLEMDDAETGLLSAICLICGDRQDLEQPDRVDMLQEPLLEALKVYVRKRRPSRPHMFPKMLMKITDLRSISAKGAERVITLKMEIPGSMPPLIQEMLENSEGLDTLSGQPGGGGRDGGGLAPPPGSCSPSLSPSSNRSSPATHSP
modifications: 35S-methionine label
For B1, in experiment [3], the binding result is “no binding”.

B2: 35S-RXR (retinoid X receptor, from pCMX hRXRα) (receptor, human, UniProt P19793 1-462, looked up)
chain: MDTKHFLPLDFSTQVNSSLTSPTGRGSMAAPSLHPSLGPGIGSPGQLHSPISTLSSPINGMGPPFSVISSPMGPHSMSVPTTPTLGFSTGSPQLSSPMNPVSSSEDIKPPLGLNGVLKVPAHPSGNMASFTKHICAICGDRSSGKHYGVYSCEGCKGFFKRTVRKDLTYTCRDNKDCLIDKRQRNRCQYCRYQKCLAMGMKREAVQEERQRGKDRNENEVESTSSANEDMPVERILEAELAVEPKTETYVEANMGLNPSSPNDPVTNICQAADKQLFTLVEWAKRIPHFSELPLDDQVILLRAGWNELLIASFSHRSIAVKDGILLATGLHVHRNSAHSAGVGAIFDRVLTELVSKMRDMQMDKTELGCLRAIVLFNPDSKGLSNPAEVEALREKVYASLEAYCKHKYPEQPGRFAKLLLRLPALRSIGLKCLEHLFFFKLIGDTPIDTFLMEMLEAPHQMT
modifications: 35S-methionine label
Regarding B2, in experiment [3], the binding result is “no binding”.
